Assay results reported in patent US20240301041A1.

Legend:
[1] = molecular target: Protein A on the surface of S. aureus Newman wild-type (Staphylococcus aureus (strain Newman)) (UniProt P38507); assay: ELISA, coated S. aureus Newman, antibody 1.18E-12 M
[2] = molecular target: Protein A on the surface of S. aureus Newman wild-type (Staphylococcus aureus (strain Newman)) (UniProt P38507); assay: ELISA, coated S. aureus Newman, antibody 1.47E-13 M
[3] = molecular target: Protein A on the surface of S. aureus Newman wild-type (Staphylococcus aureus (strain Newman)) (UniProt P38507); assay: ELISA, coated S. aureus Newman, antibody 3.09E-07 M
[4] = molecular target: Protein A on the surface of S. aureus Newman wild-type (Staphylococcus aureus (strain Newman)) (UniProt P38507); assay: ELISA, coated S. aureus Newman, antibody 3.86E-08 M
[5] = molecular target: Protein A on the surface of S. aureus Newman wild-type (Staphylococcus aureus (strain Newman)) (UniProt P38507); assay: ELISA, coated S. aureus Newman, antibody 4.82E-09 M
[6] = molecular target: Protein A on the surface of S. aureus Newman wild-type (Staphylococcus aureus (strain Newman)) (UniProt P38507); assay: ELISA, coated S. aureus Newman, antibody 6.03E-10 M
[7] = molecular target: Protein A on the surface of S. aureus Newman wild-type (Staphylococcus aureus (strain Newman)) (UniProt P38507); assay: ELISA, coated S. aureus Newman, antibody 7.54E-11 M
[8] = molecular target: Protein A on the surface of S. aureus Newman wild-type (Staphylococcus aureus (strain Newman)) (UniProt P38507); assay: ELISA, coated S. aureus Newman, antibody 9.42E-12 M
[9] = molecular target: IgG binding protein (Protein A homolog SpsQ/SpsP) on S. intermedius 27369 (Staphylococcus intermedius); assay: ELISA, coated S. intermedius 27369, antibody 1.18E-12 M
[10] = molecular target: IgG binding protein (Protein A homolog SpsQ/SpsP) on S. intermedius 27369 (Staphylococcus intermedius); assay: ELISA, coated S. intermedius 27369, antibody 1.47E-13 M
[11] = molecular target: IgG binding protein (Protein A homolog SpsQ/SpsP) on S. intermedius 27369 (Staphylococcus intermedius); assay: ELISA, coated S. intermedius 27369, antibody 3.09E-07 M
[12] = molecular target: IgG binding protein (Protein A homolog SpsQ/SpsP) on S. intermedius 27369 (Staphylococcus intermedius); assay: ELISA, coated S. intermedius 27369, antibody 3.86E-08 M
[13] = molecular target: IgG binding protein (Protein A homolog SpsQ/SpsP) on S. intermedius 27369 (Staphylococcus intermedius); assay: ELISA, coated S. intermedius 27369, antibody 4.82E-09 M
[14] = molecular target: IgG binding protein (Protein A homolog SpsQ/SpsP) on S. intermedius 27369 (Staphylococcus intermedius); assay: ELISA, coated S. intermedius 27369, antibody 6.03E-10 M
[15] = molecular target: IgG binding protein (Protein A homolog SpsQ/SpsP) on S. intermedius 27369 (Staphylococcus intermedius); assay: ELISA, coated S. intermedius 27369, antibody 7.54E-11 M
[16] = molecular target: IgG binding protein (Protein A homolog SpsQ/SpsP) on S. intermedius 27369 (Staphylococcus intermedius); assay: ELISA, coated S. intermedius 27369, antibody 9.42E-12 M
[17] = molecular target: IgG binding protein (Protein A homolog SpsQ/SpsP) on MRSP S. pseudintermedius 88493 (Staphylococcus pseudintermedius); assay: ELISA, coated S. pseudintermedius 88493, antibody 1.18E-12 M
[18] = molecular target: IgG binding protein (Protein A homolog SpsQ/SpsP) on MRSP S. pseudintermedius 88493 (Staphylococcus pseudintermedius); assay: ELISA, coated S. pseudintermedius 88493, antibody 1.47E-13 M
[19] = molecular target: IgG binding protein (Protein A homolog SpsQ/SpsP) on MRSP S. pseudintermedius 88493 (Staphylococcus pseudintermedius); assay: ELISA, coated S. pseudintermedius 88493, antibody 3.09E-07 M
[20] = molecular target: IgG binding protein (Protein A homolog SpsQ/SpsP) on MRSP S. pseudintermedius 88493 (Staphylococcus pseudintermedius); assay: ELISA, coated S. pseudintermedius 88493, antibody 3.86E-08 M
[21] = molecular target: IgG binding protein (Protein A homolog SpsQ/SpsP) on MRSP S. pseudintermedius 88493 (Staphylococcus pseudintermedius); assay: ELISA, coated S. pseudintermedius 88493, antibody 4.82E-09 M
[22] = molecular target: IgG binding protein (Protein A homolog SpsQ/SpsP) on MRSP S. pseudintermedius 88493 (Staphylococcus pseudintermedius); assay: ELISA, coated S. pseudintermedius 88493, antibody 6.03E-10 M
[23] = molecular target: IgG binding protein (Protein A homolog SpsQ/SpsP) on MRSP S. pseudintermedius 88493 (Staphylococcus pseudintermedius); assay: ELISA, coated S. pseudintermedius 88493, antibody 7.54E-11 M
[24] = molecular target: IgG binding protein (Protein A homolog SpsQ/SpsP) on MRSP S. pseudintermedius 88493 (Staphylococcus pseudintermedius); assay: ELISA, coated S. pseudintermedius 88493, antibody 9.42E-12 M
[25] = molecular target: IgG binding protein (Protein A homolog SpsQ/SpsP) on S. pseudintermedius AHDRCC 98200 (Staphylococcus pseudintermedius); assay: ELISA, coated S. pseudintermedius 98200, antibody 1.18E-12 M
[26] = molecular target: IgG binding protein (Protein A homolog SpsQ/SpsP) on S. pseudintermedius AHDRCC 98200 (Staphylococcus pseudintermedius); assay: ELISA, coated S. pseudintermedius 98200, antibody 1.47E-13 M
[27] = molecular target: IgG binding protein (Protein A homolog SpsQ/SpsP) on S. pseudintermedius AHDRCC 98200 (Staphylococcus pseudintermedius); assay: ELISA, coated S. pseudintermedius 98200, antibody 3.09E-07 M
[28] = molecular target: IgG binding protein (Protein A homolog SpsQ/SpsP) on S. pseudintermedius AHDRCC 98200 (Staphylococcus pseudintermedius); assay: ELISA, coated S. pseudintermedius 98200, antibody 3.86E-08 M
[29] = molecular target: IgG binding protein (Protein A homolog SpsQ/SpsP) on S. pseudintermedius AHDRCC 98200 (Staphylococcus pseudintermedius); assay: ELISA, coated S. pseudintermedius 98200, antibody 4.82E-09 M
[30] = molecular target: IgG binding protein (Protein A homolog SpsQ/SpsP) on S. pseudintermedius AHDRCC 98200 (Staphylococcus pseudintermedius); assay: ELISA, coated S. pseudintermedius 98200, antibody 6.03E-10 M
[31] = molecular target: IgG binding protein (Protein A homolog SpsQ/SpsP) on S. pseudintermedius AHDRCC 98200 (Staphylococcus pseudintermedius); assay: ELISA, coated S. pseudintermedius 98200, antibody 7.54E-11 M
[32] = molecular target: IgG binding protein (Protein A homolog SpsQ/SpsP) on S. pseudintermedius AHDRCC 98200 (Staphylococcus pseudintermedius); assay: ELISA, coated S. pseudintermedius 98200, antibody 9.42E-12 M
[33] = molecular target: IgG binding protein (Protein A homolog SpsQ/SpsP) on S. intermedius 27369 (Staphylococcus intermedius); assay: cell-based or functional assay
[34] = molecular target: IgG binding protein (Protein A homolog SpsQ/SpsP) on S. pseudintermedius AHDRCC 98200 (Staphylococcus pseudintermedius); assay: cell-based or functional assay
[35] = molecular target: Protein A on the surface of S. aureus Newman wild-type (Staphylococcus aureus (strain Newman)) (UniProt P38507); assay: cell-based or functional assay

Substance | ELISA luminescent signal [1] | ELISA luminescent signal [2] | ELISA luminescent signal [3] | ELISA luminescent signal [4] | ELISA luminescent signal [5] | ELISA luminescent signal [6] | ELISA luminescent signal [7] | ELISA luminescent signal [8] | ELISA luminescent signal [9] | ELISA luminescent signal [10] | ELISA luminescent signal [11] | ELISA luminescent signal [12] | ELISA luminescent signal [13] | ELISA luminescent signal [14] | ELISA luminescent signal [15] | ELISA luminescent signal [16] | ELISA luminescent signal [17] | ELISA luminescent signal [18] | ELISA luminescent signal [19] | ELISA luminescent signal [20] | other results
hIgG1 control (REGN1932) (antibody) | 30200 | 18600 | 506000 | 434000 | 652000 | 509000 | 253000 | 72500 | 9740 | 25300 | 123000 | 34800 | 42100 | 5300 | 2680 | 1610 | 8920 | 8190 | 43900 | 14500 | ELISA luminescent signal [21]: 8950; ELISA luminescent signal [22]: 11000; ELISA luminescent signal [23]: 7560; ELISA luminescent signal [24]: 7980; ELISA luminescent signal [25]: 2830; ELISA luminescent signal [26]: 1480; ELISA luminescent signal [27]: 132000; ELISA luminescent signal [28]: 36400; ELISA luminescent signal [29]: 8040; ELISA luminescent signal [30]: 4770; ELISA luminescent signal [31]: 2590; ELISA luminescent signal [32]: 1460
hIgG1*/* control (REGN4440) (antibody) | 17100 | 15500 | 38800 | 27600 | 19400 | 27500 | 24400 | 16700 | 2210 | 896 | 11100 | 3850 | 2490 | 3010 | 2510 | 775 | 6710 | 12300 | 14700 | 6470 | median cfu/mL after 16 h in 50% normal human serum, mAb 270 ug/mL [33]: 8e+06 cfu/mL; median cfu/mL after 16 h in 50% normal human serum, mAb 270 ug/mL [34]: 7.5e+06 cfu/mL; median cfu/mL after 16 h in 50% normal human serum, mAb 270 ug/mL [35]: 7e+06 cfu/mL; ELISA luminescent signal [21]: 7360; ELISA luminescent signal [22]: 7080; ELISA luminescent signal [23]: 6370; ELISA luminescent signal [24]: 6150; ELISA luminescent signal [25]: 2170; ELISA luminescent signal [26]: 1120; ELISA luminescent signal [27]: 15200; ELISA luminescent signal [28]: 5100; ELISA luminescent signal [29]: 2410; ELISA luminescent signal [30]: 2760; ELISA luminescent signal [31]: 2240; ELISA luminescent signal [32]: 1170
